The labels stand for the following.
B1: Flag-tagged RhoC (wild type), P08134 F154A; L157A (protein)
chain: MAAIRKKLVIVGDGACGKTCLLIVFSKDQFPEVYVPTVFENYIADIEVDGKQVELALWDTAGQEDYDRLRPLSYPDTDVILMCFSIDSPDSLENIPEKWTPEVKHFCPNVPIILVGNKKDLRQDEHTRRELAKMKQEPVRSEEGRDMANRISAAGYAECSAKTKEGVREVFEMATRAGLQVRKNKRRRGCPIL
B2: Flag-tagged RhoC (wild type), P08134 Y66A; L69A; F154A; L157A (protein)
chain: B1 chain with Y66A, L69A
B3: Flag-tagged RhoC (wild type), P08134 F30A; V33A (protein)
chain: B1 chain with F30A, V33A, A154F, A157L
B4: Flag-tagged RhoC (wild type), P08134 Y66A; L69A (protein)
chain: B1 chain with Y66A, L69A, A154F, A157L

Substitutions are numbered along the chain they refer to. In names and notes the source's numbering stands.

For the assay, the target named is V5-LC3, Q9GZQ8. In words: co-immunoprecipitation (Flag IP), western blot band quantification. Conditions: chain shown with the change; HEK293T cells expressing V5-LC3 and Flag-RhoC; n = 3; parent: est. 4.6; read off a plot; scale: relative IP LC3-II protein level.
In the case of B1, the response was found to be 1.2.
Turning to B2, the response came out at 1.
As for B3, the response turned out to be 4.7.
The result for B4 reads 2.1.

These data come from paper PMC11861591.
